Assay results taken from a protein production outcome set (Wang et al. 2014).

Experiment: label from the status in PepcDB records

Row | Sequence | protein production
1 | MPKIRIRKFWPSGAGTVPGVLLIALALGCVGHRAKFADETFSSDEAEIRSAVEPLPPKAQLVYLVLAGELAGQRGRYEVALEHYLQAARLSRDGRLAERAMQIALFIKKYPEAVESVALWLKAEPRHAGARRMATLLYLKEGRRDEAVTQMKVLLTLPDADLENTLIELVKVLGNEVPRQDATEFMDALLRAFPAMADLHFAAALLAANQGEFQQALSETEEALKLHPDWGRARVLQAQVMAQMGDSATAGDLIQRALKRDPDNARLRLIYSQFLIKSGDIEGARRELERIVAKEPGNQDARFGLGLALIDLGRLDAARREFAALAASEKWRVQAYFYLGLIDARKGRLNEALDWFDRVTTGPTEFDARVNGITVLISLGRLTEARTRLADIRRRFPNESVRLYLLEAELLSKNRDYEDAFNLLTDALGENPGQSDLLYARALVAENLGRFDVLEADLRQVLEKSPDDPNALNALGYTLVERGERLDEAKGYLDRAIRLKPDDPAILDSYGWLLYRLRKYAEAIEYLRRAYDKVQDPEIASHLGEVLMESGRRQEARKILREAWKKAPEHEDMQRIRARYPELLAP | failed
2 | MVSTIIISFFIIIIAVVILVLVATRSKSPSSGGRKKVKGRAVLMKEASRRLAQNPHDIEGLFIMGDIYYQDQDWEKAYTAYSALLDRMKPLEMNKQLDVAIRYGICALKTNRLPEAKKGFLLAETINPKNLDVSYNLGYIYYLEKDYEKAVKFFKRTLILEPNSFLATKYLGYTLQHLHKYTEALPALKKALDFKPDDKEVLFAMGECFYETEATDRCLKILNHLRVDPVFGPQASLYTGMIRAKADQLERAIEDFQIGLKHTGIPMDISNELKYRLAQAYIKTQEIGQALHLLKEIQSISPGYKDAATLIMRYQELNKNKNLQIYLMSGQSEFVALCRKIVARFYPKAKVKIVDISVLAAYTDIVAEIDTSRFSDTVIFRFFRSQGTVGELLLRELHARLKEVKGGTGICMSAGTFTEEAVRFSEGRPLDLYDKTRLSNVLNSLK | failed
3 | SREPVDILREQKINAEWALKQQSDKLAAQFDNMDDAYLRERKQDMLQVVRRIHNNLIGQGNELEVADNLFDETVLIANDLSPADTVLFKEQR | failed
4 | MNLLTNEKTIKVFSSLIYTSLIISLIAMIFDVKLASKIFNTIGIISAILLFINKREIKKESMLIPLSILFLCVTNLIWEQLYKNSGSEIIGLYHSYHNVMKILFLGSSLTLFVMTFSSKHPLTKNALNIIYTIPFFLVLYYLLSEPEVRFSISDKIATSSAYMISFIGILTSQVILLKTEKRNLFFYFINHIIFFTIIVLSGTRAAILAYPLLSAIVLIPAILKDKKINLKLIILYIMVNIVCLVACQKTIMSRSENLISDINMYNQSNSESSVGARIAMYRSGLTSFIHAPMGQSAESRQLDIQKQAEQNPSLSGAALLTGIHLHNELIEAISLKGIIGGMALLLLYASLFYFSSFILKDYALTSLTLSLVIYGLSDVIFYGKNATTVWIVTYCLSILLVKRNRGVQ | failed
5 | MAASFAFLRDVRPYKTSWRVQVKVLHSWCQYTNMTGETLKLVLVNSQGVKIHASVKKDLVSKYVNNLPLNEWTFIETFALNHASGQFRPTGHLYKMSFVTGTQVIRCDS | not failed
6 | MNWPNMPPGDRRWLWIGLTLPLCLLNGWVLLQILDYFQSPLRIFIIANLVAFILGYPVRWLQRYPRLKLPYAVALVLLTTAIILAVIGLLVIPKLVDQIRTVLQLLPHLNALGDRHLESLDNLSNQWEIPTNFRAWGRELSNEFPNQIRSITNQLINLLIWTAGSLVEAGFIFIMTVYLLLRGQTFWDGIFRWLPIDWRHKVRQRLRHSFQNYYIGQATVAALLGVSLIISLSIFQVPLALLFGMFVGFMAFFPFGGGTSIVLISIIASFQSIWLGIKVLAIATVVDQVVENGLAPKLLGRVTGVHPVWILLSLMIGAKVAGLLGILVAIPIASFIRDMLNDFI | failed
7 | MSKPKIAIIVGSTRAARFADVPTQWIAKIAKSHADIDVEVVDLRDFPLPFFDEVASSAWVPSTNEVAQRWQKKVAEFDGFIFTAAEYNHGPTAVLKNAIDYAANEWNKKPAGFVGYGSVGGARAVEQLRLHAVELQMAPVKSAVHIAWGDFLAVRQGEKKLEDLDHLNQAASALVNDVAWWAKALKKARAADVVDEEIKAA | failed
8 | MFRCQTKGWCKSLKPKVFLEFVEIKSLIASVLPFVLGSMYAYYNYHQLHLGYLLLFFIASSLFHMATNANDNYQDFLHAPRNDDNQEFLQETNVVGVNQISIGQARTITFGLAGISLIIGLWLVTQTGLPLLWMGLYSYAVGYFYAGGPKPISQGPFGEFFSGFTMGFMIFWIAVFINTYDTAAITWQSTLAVLIASGLAIFAISNIMLANNICDMDEDIALGRHTILYYLGKPVMLQVFAWSYVAGYACLVIAVLMGVLPKFSLLTLLSIIPVWKNTRVFLHKQVKRETFTISIKNATLICLSFIVFMGLGLIFN | failed
9 | MSPISEPSRLDPVRPGQLLMIDLPGPELDKDTAAYLREHGIGAVCLFGKNVESAEQLRRLCADLREVMGEHALIAIDHEGGAITRPEFWPFAPSAMSLGAADDQQLTEDVNAALARQLRSVGINWNFTPVLDINVNPANPVIGDRAYGSDAARVTRHGRAALAGHTREGVAPCAKHFPGHGDTHQDSHLALPRVSKSRAELDAGELAPFRALLPETPAIMTAHIVYDALDAEHPATLSPRILTGLLREEWGYDGVIVTDSMGMQAIDANYGRGEAAVRALRAGADLVMALGRREVQQATLAAVAEYVPENQAAVATKRERLRALARRFPAQADETLDPQADAALLADA | not failed
10 | MPQDVMTANHVSPSNDAAAPSALDLARNQRLSLMDLLSVSEALNAAGQQAAAAELYKTWVAFNDNNPTIHLAYFNYAVMLNQLGDRAGAVQAFRACLKANPEFAPGHINLGRALEDAGLIGHAVEQWSHYAEVTKNVDAETIGHRHMTLQNMGRVLEGAGKLEEAETALLQAFELRPELPEAGQHWASLRQRQCKWPVLAPSNHISPRKMLDAMSSLTLSCYADDPMFQLAKAYRLSKTLIGARPDLSRFPRRSPKQKSGTGQRLRVGYLSSDLRDHAVGFALCEVLELHDKDSLEVFAYYCGNVRGTDSTQERIKAAVHCWRDIHGVDDATAASQIIADEIDILIDVNGYTKDARAKIFAYRPAPVIVSFCGYPGSMGSPFHQYLISDGYMIPPENEIYYSEKVLRIACDQPLDRKRPVAARPSRADVGLPEDAFVYASFNGMQKITENCFARWMTILSETPGSLLWLLTGDDDVNQRLRDLAEKSGVASERLVFAPKAQNPQHIARIGLADLFLDTFPYGAHSTASDAITSGLPVLTMYGKTFAARFCGSIVTAAGVPEMICSSPEDYVARAIGFERDRQSLLEVRESIARQRETSVLRDIPALARRLEELFWQMQGECERGETPVPDLSNLDIYYEAGAEALLENIEFEDEQSYRERYLKKLRQWHDYAPIPYDRRLWQNPDN | failed
11 | MFLLEPKQSSNPMQPQETAARYDTIAQWWQTQHQDSQYGLRQLERAIQFVDPTHQPKLALEVGCGSSGRFIECLSNRGFQVEGLDISTAMIDLAQQLHPEVTFYRADICEWIPSKSYSLIVAWDSTFHLPLDQQAPVHRKLCAALEDQGILMFTCGGGDQAGEIAGVFQGQDFEYSTLGIDAFLKLLSDCHCTCLHLEYDQYPERHVYVIAKKVGAAIH | failed
12 | KAEAEQNWWEGPPQDLSVHLWYAGPMERAGAESILANRSDGTFLVRQRVKDAAEFAISIKYNVEVKHIKIMTAEGLYRITEKKAFRGLTELVEFYQQNSLKDCFKSLDTTLQFPFKEPEKRTISR | not failed
13 | MPSLGCCYIMGGTVLWAIAAELFFESMNLITWLADFSRGHCVGICAALVPSILLWTTICAVLIALGQPRWSVNTAYVATLTVCGVMVLHVASWFSIGVITPVTFILLGLSLSCGSLATLFWRYSSQWQKFCHSGLRETIKAKWPQTLKI | failed
14 | WGLSVERSTYFLAPADRHYLADYARQAEDAWRREGAAGAERFRKELSAKEDTWVALVGPHLESLGSTPLSAEESSHLTFMRKLDWPMSRRLQDELPYVSIEFPGHPEQGRLVIQLPERLLPG | not failed
15 | MVSFRSRSNPAVVILGLGRFGMALGEELVHSGVEVMGIDTNPAVVDKASAILTYAAVADTTSEEALRQLAVNEASRVVIGIGSDMGASLLTASAVVEFNIPSIWAKALNNSHAKILKQIGVHHIIRPEQDTGRRIAHLMNGRVQEYAEFDRDYAIVKIAPPVSALGKKVCDFDRVQIIAVRPAGGMFRQSKPEMVLRSGDLILAAGNPDELERFGTLD | failed
